The chains are these.
B1: agonistic anti-CD40 antibody CP870,893 (antibody, human IgG2, kappa)
heavy: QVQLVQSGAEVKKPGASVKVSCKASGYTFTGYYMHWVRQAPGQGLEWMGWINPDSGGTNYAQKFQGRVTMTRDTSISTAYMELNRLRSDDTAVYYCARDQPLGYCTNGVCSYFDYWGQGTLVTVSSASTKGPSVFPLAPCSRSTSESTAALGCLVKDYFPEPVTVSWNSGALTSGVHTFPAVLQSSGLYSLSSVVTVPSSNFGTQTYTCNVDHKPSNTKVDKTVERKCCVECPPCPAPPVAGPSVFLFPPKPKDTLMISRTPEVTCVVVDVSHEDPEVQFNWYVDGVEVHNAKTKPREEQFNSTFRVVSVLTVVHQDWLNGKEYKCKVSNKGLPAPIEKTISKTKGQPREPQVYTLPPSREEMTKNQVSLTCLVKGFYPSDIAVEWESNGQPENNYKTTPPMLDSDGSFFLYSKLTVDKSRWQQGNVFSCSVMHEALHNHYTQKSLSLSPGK
light: DIQMTQSPSSVSASVGDRVTITCRASQGIYSWLAWYQQKPGKAPNLLIYTASTLQSGVPSRFSGSGSGTDFTLTISSLQPEDFATYYCQQANIFPLTFGGGTKVEIKRTVAAPSVFIFPPSDEQLKSGTASVVCLLNNFYPREAKVQWKVDNALQSGNSQESVTEQDSKDSTYSLSSTLTLSKADYEKHKVYACEVTHQGLSSPVTKSFNRGEC
B2: IFA12 (antibody, human IgG2, kappa)
light: DIQMTQSPSSVSASVGDRVTITCRASQGIYSWLAWYQQKPGKAPNLLIYTASTLQSGVPSRFSGSGSGTDFTLTISSLQPEDFATYYCQQANIFPLTFGGGTKVEIKRTVAAPSVFIFPPSDEQLKSGTASVVCLLNNFYPREAKVQWKVDNALQSGNSQESVTEQDSKDSTYSLSSTLTLSKADYEKHKVYACEVTHQGLSSPVTKSFNRGECPAPAMSYNLLGFLQRSSNFQCQKLLWQLNGRLEYCLKDRMNFDIPEEIKQLQQFQKEDAALTIYEMLQNIFAIFRQDSSSTGWNETIVENLLANVYHQINHLKTVLEEKLEKEDFTRGKLMSSLHLKRYYGRILHYLKAKEYSHCAWTIVRVEILRNFYFINRLTGYLRN
heavy: not shown
B3: IFA13 (antibody, human IgG2, kappa)
light: B2 light with C235S
heavy: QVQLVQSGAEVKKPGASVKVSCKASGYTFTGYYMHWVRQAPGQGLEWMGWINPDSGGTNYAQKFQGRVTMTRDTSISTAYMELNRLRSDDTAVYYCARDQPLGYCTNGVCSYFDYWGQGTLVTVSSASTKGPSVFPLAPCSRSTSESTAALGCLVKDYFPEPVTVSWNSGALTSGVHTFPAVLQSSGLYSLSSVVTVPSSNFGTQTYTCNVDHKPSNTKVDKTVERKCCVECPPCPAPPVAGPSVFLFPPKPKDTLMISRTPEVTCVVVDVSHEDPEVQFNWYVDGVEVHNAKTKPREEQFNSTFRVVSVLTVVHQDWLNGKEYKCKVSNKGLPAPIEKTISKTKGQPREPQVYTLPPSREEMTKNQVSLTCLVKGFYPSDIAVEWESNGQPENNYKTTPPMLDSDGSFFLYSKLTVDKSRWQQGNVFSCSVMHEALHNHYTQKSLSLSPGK
B4: IFA19 (antibody, human IgG2, kappa)
light: DIQMTQSPSSVSASVGDRVTITCRASQGIYSWLAWYQQKPGKAPNLLIYTASTLQSGVPSRFSGSGSGTDFTLTISSLQPEDFATYYCQQANIFPLTFGGGTKVEIKRTVAAPSVFIFPPSDEQLKSGTASVVCLLNNFYPREAKVQWKVDNALQSGNSQESVTEQDSKDSTYSLSSTLTLSKADYEKHKVYACEVTHQGLSSPVTKSFNRGECSGGTSGSTSGTGSMSYNLLGFLQRSSNFQSQKLLWQLNGRLEYCLKDRMNFDIPEEIKQLQQFQKEDAALTIYEMLQNIFAIFRQDSSSTGWNETIVENLLANVYHQINHLKTVLEEKLEKEDFTRGKLMSSLHLKRYYGRILHYLKAKEYSHCAWTIVRVEILRNFYFINRLTGYLRN
heavy: not shown
B5: IFA10 (antibody, human IgG2, kappa)
heavy: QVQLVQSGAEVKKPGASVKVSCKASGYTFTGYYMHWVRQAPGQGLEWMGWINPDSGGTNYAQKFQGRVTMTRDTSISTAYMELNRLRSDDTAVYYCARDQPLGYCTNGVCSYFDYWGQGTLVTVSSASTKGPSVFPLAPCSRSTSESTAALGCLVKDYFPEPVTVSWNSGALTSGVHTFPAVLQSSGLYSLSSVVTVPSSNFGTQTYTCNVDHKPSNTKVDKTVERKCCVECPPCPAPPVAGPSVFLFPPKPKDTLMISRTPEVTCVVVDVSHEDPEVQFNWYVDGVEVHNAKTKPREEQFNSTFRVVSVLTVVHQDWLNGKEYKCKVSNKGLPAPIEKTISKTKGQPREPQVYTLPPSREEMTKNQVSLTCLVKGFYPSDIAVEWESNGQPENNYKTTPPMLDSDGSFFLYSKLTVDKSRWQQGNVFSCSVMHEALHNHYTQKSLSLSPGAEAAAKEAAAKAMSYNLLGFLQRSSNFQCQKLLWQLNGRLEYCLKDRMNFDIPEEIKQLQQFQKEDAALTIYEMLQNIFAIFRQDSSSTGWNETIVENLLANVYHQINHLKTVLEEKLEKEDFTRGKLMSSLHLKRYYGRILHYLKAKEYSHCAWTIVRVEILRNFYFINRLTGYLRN
light: B1 light
B6: IFA8 (antibody, human IgG2, kappa)
heavy: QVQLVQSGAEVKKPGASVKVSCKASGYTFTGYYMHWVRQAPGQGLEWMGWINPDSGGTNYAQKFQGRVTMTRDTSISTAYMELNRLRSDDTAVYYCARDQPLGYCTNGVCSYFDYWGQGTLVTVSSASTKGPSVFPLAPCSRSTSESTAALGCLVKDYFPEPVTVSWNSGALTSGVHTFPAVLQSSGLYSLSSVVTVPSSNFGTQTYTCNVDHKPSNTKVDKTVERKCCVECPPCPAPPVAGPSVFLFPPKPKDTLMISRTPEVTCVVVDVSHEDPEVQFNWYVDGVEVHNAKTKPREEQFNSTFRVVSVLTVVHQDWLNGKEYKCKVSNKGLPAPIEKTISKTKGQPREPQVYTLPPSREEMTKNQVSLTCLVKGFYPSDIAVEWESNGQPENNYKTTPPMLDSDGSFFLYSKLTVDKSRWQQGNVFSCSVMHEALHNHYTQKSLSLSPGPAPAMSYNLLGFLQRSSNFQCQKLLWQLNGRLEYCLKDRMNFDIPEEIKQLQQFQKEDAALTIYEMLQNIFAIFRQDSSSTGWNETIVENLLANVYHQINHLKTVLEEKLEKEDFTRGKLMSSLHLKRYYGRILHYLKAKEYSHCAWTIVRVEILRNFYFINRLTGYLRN
light: B1 light
B7: IFA11 (antibody, human IgG2, kappa)
heavy: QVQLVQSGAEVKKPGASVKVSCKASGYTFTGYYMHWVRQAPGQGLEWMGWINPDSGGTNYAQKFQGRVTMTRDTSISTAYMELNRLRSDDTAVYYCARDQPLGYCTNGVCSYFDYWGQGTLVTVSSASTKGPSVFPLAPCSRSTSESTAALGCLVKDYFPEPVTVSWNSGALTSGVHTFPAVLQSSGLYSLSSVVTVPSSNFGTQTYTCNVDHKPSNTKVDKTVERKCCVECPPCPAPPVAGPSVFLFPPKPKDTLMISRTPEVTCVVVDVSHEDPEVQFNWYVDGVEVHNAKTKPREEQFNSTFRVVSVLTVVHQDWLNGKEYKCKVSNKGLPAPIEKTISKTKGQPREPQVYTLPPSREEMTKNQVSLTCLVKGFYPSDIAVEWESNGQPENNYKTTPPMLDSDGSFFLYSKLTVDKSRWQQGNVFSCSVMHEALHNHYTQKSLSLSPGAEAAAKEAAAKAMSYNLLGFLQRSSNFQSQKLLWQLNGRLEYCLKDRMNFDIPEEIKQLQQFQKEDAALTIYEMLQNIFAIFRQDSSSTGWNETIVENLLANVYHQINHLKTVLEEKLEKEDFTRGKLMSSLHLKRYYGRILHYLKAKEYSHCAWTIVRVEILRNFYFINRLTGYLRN
light: B1 light
B8: IFA9 (antibody, human IgG2, kappa)
heavy: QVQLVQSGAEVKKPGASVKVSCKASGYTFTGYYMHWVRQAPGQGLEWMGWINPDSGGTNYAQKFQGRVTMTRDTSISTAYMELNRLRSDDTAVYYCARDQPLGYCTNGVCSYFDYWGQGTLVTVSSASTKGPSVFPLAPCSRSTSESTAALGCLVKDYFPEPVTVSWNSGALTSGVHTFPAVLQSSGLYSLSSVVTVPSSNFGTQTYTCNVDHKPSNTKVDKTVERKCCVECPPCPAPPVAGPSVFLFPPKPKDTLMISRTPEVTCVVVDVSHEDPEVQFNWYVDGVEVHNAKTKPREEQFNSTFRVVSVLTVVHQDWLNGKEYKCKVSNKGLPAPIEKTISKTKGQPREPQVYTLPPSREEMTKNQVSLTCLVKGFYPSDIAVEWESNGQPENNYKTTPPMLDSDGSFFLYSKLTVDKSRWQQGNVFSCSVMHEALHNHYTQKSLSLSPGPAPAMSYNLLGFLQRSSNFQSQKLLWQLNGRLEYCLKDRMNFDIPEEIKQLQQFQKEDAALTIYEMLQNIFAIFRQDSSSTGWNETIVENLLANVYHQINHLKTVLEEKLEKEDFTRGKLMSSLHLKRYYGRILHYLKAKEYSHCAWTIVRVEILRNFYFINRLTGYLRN
light: B1 light
B9: IFA49 (antibody, human IgG2, kappa)
heavy: not shown
light: B1 light
B10: IFA1 (antibody, human IgG2, kappa)
light: DIQMTQSPSSVSASVGDRVTITCRASQGIYSWLAWYQQKPGKAPNLLIYTASTLQSGVPSRFSGSGSGTDFTLTISSLQPEDFATYYCQQANIFPLTFGGGTKVEIKRTVAAPSVFIFPPSDEQLKSGTASVVCLLNNFYPREAKVQWKVDNALQSGNSQESVTEQDSKDSTYSLSSTLTLSKADYEKHKVYACEVTHQGLSSPVTKSFNRGECAEAAAKEAAAKAMSYNLLGFLQRSSNFQCQKLLWQLNGRLEYCLKDRMNFDIPEEIKQLQQFQKEDAALTIYEMLQNIFAIFRQDSSSTGWNETIVENLLANVYHQINHLKTVLEEKLEKEDFTRGKLMSSLHLKRYYGRILHYLKAKEYSHCAWTIVRVEILRNFYFINRLTGYLRN
heavy: not shown
B11: IFA2 (antibody, human IgG2, kappa)
light: B10 light with C243S
heavy: not shown
B12: IFA20 (antibody, human IgG2, kappa)
light: DIQMTQSPSSVSASVGDRVTITCRASQGIYSWLAWYQQKPGKAPNLLIYTASTLQSGVPSRFSGSGSGTDFTLTISSLQPEDFATYYCQQANIFPLTFGGGTKVEIKRTVAAPSVFIFPPSDEQLKSGTASVVCLLNNFYPREAKVQWKVDNALQSGNSQESVTEQDSKDSTYSLSSTLTLSKADYEKHKVYACEVTHQGLSSPVTKSFNRGECAEAAAKEAAAKAAEAAAKEAAAKAMSYNLLGFLQRSSNFQSQKLLWQLNGRLEYCLKDRMNFDIPEEIKQLQQFQKEDAALTIYEMLQNIFAIFRQDSSSTGWNETIVENLLANVYHQINHLKTVLEEKLEKEDFTRGKLMSSLHLKRYYGRILHYLKAKEYSHCAWTIVRVEILRNFYFINRLTGYLRN
heavy: not shown
B13: IFA108 (antibody, human IgG2, kappa)
heavy: QVQLVESGGGVVQPGKSLRLSCAASGFTFSSNGIHWVRQAPGKGLEWVAVIWSDGSNKFYADSVKGRFTISRDNSKNTLYLQMNSLRAEDTAVYYCARASGSGSYYNFFDYWGQGTLVTVSSASTKGPSVFPLAPCSRSTSESTAALGCLVKDYFPEPVTVSWNSGALTSGVHTFPAVLQSSGLYSLSSVVTVPSSNFGTQTYTCNVDHKPSNTKVDKTVERKCCVECPPCPAPPVAGPSVFLFPPKPKDTLMISRTPEVTCVVVDVSHEDPEVQFNWYVDGVEVHNAKTKPREEQFNSTFRVVSVLTVVHQDWLNGKEYKCKVSNKGLPAPIEKTISKTKGQPREPQVYTLPPSREEMTKNQVSLTCLVKGFYPSDIAVEWESNGQPENNYKTTPPMLDSDGSFFLYSKLTVDKSRWQQGNVFSCSVMHEALHNHYTQKSLSLSPGAEAAAKEAAAKASYNLLGFLQRSSNFQCQKLLWQLNGRLEYCLKDRMNFDIPEEIKQLQQFQKEDAALTIYEMLQNIFAIFRQDSSSTGWNETIVENLLANVYHQINHLKTVLEEKLEKEDFTRGKLMSSLHLKRYYGRILHYLKAKEYSHCAWTIVRVEILRNFYFINRLTGYLRN
light: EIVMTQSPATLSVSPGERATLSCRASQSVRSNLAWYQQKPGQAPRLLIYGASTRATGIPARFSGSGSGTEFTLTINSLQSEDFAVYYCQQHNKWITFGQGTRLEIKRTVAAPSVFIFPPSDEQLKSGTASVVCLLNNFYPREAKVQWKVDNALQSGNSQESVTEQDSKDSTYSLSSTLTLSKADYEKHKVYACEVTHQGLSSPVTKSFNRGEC
B14: IFA109 (antibody, human IgG2, kappa)
heavy: B13 heavy with C475S
light: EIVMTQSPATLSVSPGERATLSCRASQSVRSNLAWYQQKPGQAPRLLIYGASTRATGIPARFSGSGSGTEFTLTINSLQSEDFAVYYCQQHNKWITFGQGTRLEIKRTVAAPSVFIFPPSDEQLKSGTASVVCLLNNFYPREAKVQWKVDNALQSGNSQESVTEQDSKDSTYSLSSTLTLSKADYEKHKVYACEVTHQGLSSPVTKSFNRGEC
B15: IFA106 (antibody, human IgG2, kappa)
heavy: QVQLVESGGGVVQPGKSLRLSCAASGFTFSSNGIHWVRQAPGKGLEWVAVIWSDGSNKFYADSVKGRFTISRDNSKNTLYLQMNSLRAEDTAVYYCARASGSGSYYNFFDYWGQGTLVTVSSASTKGPSVFPLAPCSRSTSESTAALGCLVKDYFPEPVTVSWNSGALTSGVHTFPAVLQSSGLYSLSSVVTVPSSNFGTQTYTCNVDHKPSNTKVDKTVERKCCVECPPCPAPPVAGPSVFLFPPKPKDTLMISRTPEVTCVVVDVSHEDPEVQFNWYVDGVEVHNAKTKPREEQFNSTFRVVSVLTVVHQDWLNGKEYKCKVSNKGLPAPIEKTISKTKGQPREPQVYTLPPSREEMTKNQVSLTCLVKGFYPSDIAVEWESNGQPENNYKTTPPMLDSDGSFFLYSKLTVDKSRWQQGNVFSCSVMHEALHNHYTQKSLSLSPGPAPASYNLLGFLQRSSNFQCQKLLWQLNGRLEYCLKDRMNFDIPEEIKQLQQFQKEDAALTIYEMLQNIFAIFRQDSSSTGWNETIVENLLANVYHQINHLKTVLEEKLEKEDFTRGKLMSSLHLKRYYGRILHYLKAKEYSHCAWTIVRVEILRNFYFINRLTGYLRN
light: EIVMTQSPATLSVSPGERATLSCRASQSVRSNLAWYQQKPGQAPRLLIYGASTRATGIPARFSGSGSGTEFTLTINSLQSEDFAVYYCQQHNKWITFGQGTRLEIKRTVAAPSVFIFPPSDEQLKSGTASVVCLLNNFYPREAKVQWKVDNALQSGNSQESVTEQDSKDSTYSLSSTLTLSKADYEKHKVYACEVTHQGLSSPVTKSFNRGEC
B16: IFA107 (antibody, human IgG2, kappa)
heavy: B15 heavy with C467S
light: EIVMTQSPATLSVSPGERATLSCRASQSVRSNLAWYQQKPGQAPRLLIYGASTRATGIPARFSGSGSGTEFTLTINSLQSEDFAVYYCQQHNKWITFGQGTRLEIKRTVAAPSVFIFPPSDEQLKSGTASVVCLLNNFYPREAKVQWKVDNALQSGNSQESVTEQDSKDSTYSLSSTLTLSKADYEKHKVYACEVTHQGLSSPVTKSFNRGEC

Substitutions are numbered along the chain they refer to.

For the first assay, the target named is T1, human CD40 (human, UniProt P25942 21-277). Kind of assay: cell-based or functional assay.
T1 sequence (P25942 21-277): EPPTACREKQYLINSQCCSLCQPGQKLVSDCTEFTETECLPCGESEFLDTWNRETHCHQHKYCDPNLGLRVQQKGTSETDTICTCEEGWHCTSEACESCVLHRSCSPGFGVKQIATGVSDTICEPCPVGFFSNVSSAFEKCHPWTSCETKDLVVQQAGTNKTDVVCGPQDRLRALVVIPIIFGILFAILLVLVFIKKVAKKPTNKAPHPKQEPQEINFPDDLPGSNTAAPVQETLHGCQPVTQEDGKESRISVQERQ
On to B1, for which the “EC50, agonistic CD40 activity in the experiment of FIG. 3 (HEK-Blue CD40L reporter cells)” value worked out at 0.057 µg/mL; the “EC50, potency on CD40 pathway (HEK-Blue CD40L reporter cells)” value was in the range of 0.03 to 0.08 µg/mL; the “mean EC50, agonistic CD40 activity (HEK-Blue CD40L reporter cells)” value was 0.048 µg/mL.

In the next assay the target is T1, human CD40. The assay can be described thus: cell-based or functional assay. This is another data set of the same source.
As for B2, the “CD40 EC50 (HEK-Blue CD40L reporter cells)” value (shortened to “CD40 EC50”) turned out to be 0.105 µg/mL.
The same measure, in the same setting: the figure for B3 is 0.192 µg/mL; for B4 it is 0.11 µg/mL.
With B5, the “CD40 EC50” value came out at 0.0265 µg/mL.
On the same count and under the same terms, in the case of B6 it was 0.0397 µg/mL; in that of B7, 0.0428 µg/mL; in that of B8, 0.0426 µg/mL.
As to B9, the “CD40 EC50” value came out at 0.0658 µg/mL.
On the same count and under the same terms, the figure for B10 is 0.0741 µg/mL; for B11 it is 0.111 µg/mL.
With B12, the “CD40 EC50” value is 0.182 µg/mL.

The next assay deals with human IFN receptor on HEK-Blue IFN-α/β cells (human). Kind of assay: cell-based or functional assay.
As for B2, the “IFNβ EC50 (HEK-Blue IFN-α/β reporter cells)” value (“IFNβ EC50” below) was determined as 0.00364 µg/mL.
The same measure, in the same setting: the figure for B3 is 0.0007 µg/mL; for B4 it is 0.0013 µg/mL.
Still for that read-out and setting: in the case of B5 it was 0.0045 µg/mL.
On the same count and under the same terms, the figure for B6 is 0.0029 µg/mL; for B7 it is 0.00178 µg/mL.
Regarding B8, the “IFNβ EC50” value is 0.0007 µg/mL.
For B9, the “IFNε EC50 (HEK-Blue IFN-α/β reporter cells)” value was 0.0782 µg/mL.
B10: the “IFNβ EC50” value was 0.00164 µg/mL.
The same measure, in the same setting: the figure for B11 is 0.00014 µg/mL.
The same measure, in the same setting: the figure for B12 is 0.00234 µg/mL.

The target in a further assay is T1, human CD40. Kind of assay: cell-based or functional assay. The source holds these as a separate data set.
With B13, the “CD40 EC50” value came out at 0.0373 µg/mL.
On the same count and under the same terms, in the case of B14 it was 0.03 µg/mL; in that of B15, 0.191 µg/mL.
Turning to B16, the “CD40 EC50” value was found to be 0.142 µg/mL.

The target of the next assay is human IFN receptor on HEK-Blue IFN-α/β cells (human). The assay can be described thus: cell-based or functional assay. This is another data set of the same source.
In the case of B13, the “IFNβ EC50” value came out at 0.00127 µg/mL.
Same read-out and setting: in the case of B14 it was 0.00045 µg/mL.
On the same count and under the same terms, the figure for B15 is 0.0103 µg/mL; for B16 it is 0.00203 µg/mL.
